This note sets out measurements from article PMC6910828.

In this test the target is Cy3-labelled, prenylated Cdc42, wild type, GDP-bound. Nature of the test: membrane extraction (wash-off) assay on supported lipid bilayers, TIRF; as above, GDI titrated between 0 and 20 µM; Koff of the GTPase from the membrane plotted against GDI concentration and fitted with a hyperbolic function (Kd, Vmax); apparent affinities.

In the case of “Xenopus laevis RhoGDI E158/9Q (natural protein)”, the fold reduction of the extraction of Cdc42:GDP against WT GDI was less than 2 fold.
